We go through one substance from patent US20250230234A1.

Test [1] concerns the target human GPRC5D-human GPRC5A chimera (145-167) (human) (UniProt Q9NZD1). Put plainly: flow cytometry on FreeStyle 293-F cells expressing the chimera (aa145-aa167); negative control. (A flow cytometer gives signals particle by particle.)
The target in test [2] is human GPRC5D (full length, on cells) (human) (UniProt Q9NZD1). The test can be described thus: flow cytometry on FreeStyle 293-F cells expressing hGPRC5D; negative control.
Sequence of human GPRC5D (full length, on cells) (human) (Q9NZD1 whole entry, the tested form may be a part): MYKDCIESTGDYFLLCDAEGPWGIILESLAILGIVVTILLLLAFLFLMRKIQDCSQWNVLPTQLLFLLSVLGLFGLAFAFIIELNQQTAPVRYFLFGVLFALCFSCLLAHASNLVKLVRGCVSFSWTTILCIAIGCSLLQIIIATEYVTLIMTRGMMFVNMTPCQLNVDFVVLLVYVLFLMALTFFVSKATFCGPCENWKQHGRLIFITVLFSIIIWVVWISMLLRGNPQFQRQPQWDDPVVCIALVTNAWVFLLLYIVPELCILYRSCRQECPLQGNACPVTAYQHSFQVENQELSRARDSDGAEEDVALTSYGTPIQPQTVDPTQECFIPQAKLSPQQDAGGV
Test [3] deals with human GPRC5D-human GPRC5A chimera (226-239) (human) (UniProt Q9NZD1). The test can be described thus: flow cytometry on FreeStyle 293-F cells expressing the chimera (aa226-aa239); negative control.
Sequence of human GPRC5D-human GPRC5A chimera (226-239) (human) (Q9NZD1 other isoform, or with tags, fused parts or gaps mutant): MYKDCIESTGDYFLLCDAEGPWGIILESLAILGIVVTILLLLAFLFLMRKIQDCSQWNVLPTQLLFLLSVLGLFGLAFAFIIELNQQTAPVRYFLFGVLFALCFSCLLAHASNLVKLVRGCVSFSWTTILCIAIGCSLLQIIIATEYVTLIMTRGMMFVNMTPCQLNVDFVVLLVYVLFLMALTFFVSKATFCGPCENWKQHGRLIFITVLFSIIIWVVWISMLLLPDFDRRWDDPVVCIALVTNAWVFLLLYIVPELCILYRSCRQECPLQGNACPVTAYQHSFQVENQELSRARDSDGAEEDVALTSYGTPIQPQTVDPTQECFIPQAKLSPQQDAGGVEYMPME
The target in test [4] is human GPRC5D-human GPRC5A chimera (Nterm) (human) (UniProt Q9NZD1). The test can be described thus: flow cytometry on FreeStyle 293-F cells expressing the chimera (Nter); negative control.
Sequence of human GPRC5D-human GPRC5A chimera (Nterm) (human) (Q9NZD1 other isoform, or with tags, fused parts or gaps mutant): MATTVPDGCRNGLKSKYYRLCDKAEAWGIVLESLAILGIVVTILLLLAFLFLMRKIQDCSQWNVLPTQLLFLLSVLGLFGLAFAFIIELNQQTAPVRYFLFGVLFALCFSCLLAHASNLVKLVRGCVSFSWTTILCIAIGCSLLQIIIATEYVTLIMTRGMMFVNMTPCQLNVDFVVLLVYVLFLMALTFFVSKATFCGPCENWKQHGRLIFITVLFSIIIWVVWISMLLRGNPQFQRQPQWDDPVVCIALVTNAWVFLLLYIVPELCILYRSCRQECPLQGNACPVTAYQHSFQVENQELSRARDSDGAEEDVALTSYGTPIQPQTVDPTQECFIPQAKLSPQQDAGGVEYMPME
Test [5] concerns the target human GPRC5D-human GPRC5A chimera (85-93) (human) (UniProt Q9NZD1). The test can be described thus: flow cytometry on FreeStyle 293-F cells expressing the chimera (aa85-aa93); negative control.

Sequence of human GPRC5D-human GPRC5A chimera (145-167) (human) (Q9NZD1 other isoform, or with tags, fused parts or gaps mutant): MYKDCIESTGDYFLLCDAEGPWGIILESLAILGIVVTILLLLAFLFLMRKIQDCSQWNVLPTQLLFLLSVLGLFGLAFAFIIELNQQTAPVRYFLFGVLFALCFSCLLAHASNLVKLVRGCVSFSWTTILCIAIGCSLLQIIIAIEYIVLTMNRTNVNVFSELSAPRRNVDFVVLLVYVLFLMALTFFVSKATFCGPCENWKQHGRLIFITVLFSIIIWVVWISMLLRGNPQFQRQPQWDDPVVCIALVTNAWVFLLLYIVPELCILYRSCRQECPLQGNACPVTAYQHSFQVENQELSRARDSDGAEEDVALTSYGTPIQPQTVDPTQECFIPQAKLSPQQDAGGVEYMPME
Sequence of human GPRC5D-human GPRC5A chimera (85-93) (human) (Q9NZD1 other isoform, or with tags, fused parts or gaps mutant): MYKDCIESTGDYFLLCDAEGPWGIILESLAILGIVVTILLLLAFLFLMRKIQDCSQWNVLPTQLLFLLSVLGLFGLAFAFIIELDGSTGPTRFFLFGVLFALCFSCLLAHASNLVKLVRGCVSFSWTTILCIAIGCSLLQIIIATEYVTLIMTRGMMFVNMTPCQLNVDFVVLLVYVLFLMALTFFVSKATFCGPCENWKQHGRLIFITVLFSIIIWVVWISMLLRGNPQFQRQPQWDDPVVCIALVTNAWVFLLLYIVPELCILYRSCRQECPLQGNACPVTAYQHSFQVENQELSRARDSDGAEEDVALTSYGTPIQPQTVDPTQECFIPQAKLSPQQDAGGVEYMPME

With “Isotype control IgG1 in wildtype format (antibody to an irrelevant small molecule target)”, the MFI came to 32500 in test [1]; 27400 in test [2]; 29800 in test [3]; 24700 in test [4]; 29700 in test [5].
